Light-dependent activation (ratio of NIR signal intensity to Dark signal intensity), CPTS luminescence reporter in HEK293T cells, light-dependent activation (NIR against Dark), CPTS luminescence reporter in HEK293T cells and gene activation by light irradiation (NIR against Dark), CPTS luminescence reporter in HEK293T cells data for two substances are collected here from patent US20260001920A1.

What all share (experiment): cell-based or functional assay
For assay [1], the target named is RpPpsR2 mutant (with Q105T and L137E introduced) (NLSx3-MS2-RpPpsR2 mutant) (bacteriophage MS2; Rhodopseudomonas palustris) (UniProt P03612).
Assay [2] concerns the target RpPpsR2 mutant (with Q105S and L137E introduced) (NLSx3-MS2-RpPpsR2 mutant) (bacteriophage MS2; Rhodopseudomonas palustris) (UniProt P03612).
Assay [3] deals with RpPpsR2 domain-modified body D4-D1-D2 (NLSx3-MS2-RpPpsR2 mutant) (bacteriophage MS2; Rhodopseudomonas palustris) (UniProt P03612).
The target in assay [4] is RpPpsR2 domain-modified body D1-D2 (del C 15) (NLSx3-MS2-RpPpsR2 mutant) (bacteriophage MS2; Rhodopseudomonas palustris) (UniProt P03612).
Assay [5] addresses RpPpsR2 mutant L110A (NLSx3-MS2-RpPpsR2 mutant) (bacteriophage MS2; Rhodopseudomonas palustris) (UniProt P03612).

For “RpBphP1 mutant (with Q502A and E513A introduced) (NLSx3-RpBphP1 mutant-p65-HSF1)”, the light-dependent activation (ratio of NIR signal intensity to Dark signal intensity), CPTS luminescence reporter in HEK293T cells in assay [1] is over 10 times; in assay [2], 10 >.

Take “wild-type RpBphP1 (NLSx3-RpBphP1-p65-HSF1)”: the light-dependent activation (NIR against Dark), CPTS luminescence reporter in HEK293T cells is 7.2 times in assay [3] and 9.6 times in assay [4]. This substance also came in with a gene activation by light irradiation (NIR against Dark), CPTS luminescence reporter in HEK293T cells in assay [5] of 13.4 times.
